From paper PMC6585436 (Chemistry & biology, 2015)
Values joined by “and” are separate entries in the source; they are usually repeats but may differ in a detail not shown here. Equal entries are not always repeated. Where two headings read alike, the source gives them in different places.

Assays:
Test in all cases: native MS
[1] = molecular target: N-His MtMscL (pet15b-10xHis-Thrombin-MtMscL-PG) (Mycobacterium tuberculosis) (UniProt A5U127)
[2] = molecular target: N-His MtMscL (pet15b-10xHis-Thrombin-MtMscL-PG) (Mycobacterium tuberculosis) (UniProt A5U127); remark: listed apart in the source
[3] = molecular target: AfMscL C-GFP (pet15b-AfMscL-TEV-GFP-6xHis) (Acidithiobacillus ferrooxidans)
native MS [4] = molecular target: the molecule itself
native MS [5] = molecular target: the molecule itself; remark: listed apart in the source
native MS [6] = molecular target: the molecule itself; remark: listed apart in the source
native MS [7] = molecular target: the molecule itself; remark: listed apart in the source
native MS [8] = molecular target: the molecule itself; remark: listed apart in the source

Molecule: N-His MtMscL (pet15b-10xHis-Thrombin-MtMscL-PG) (from UniProt A5U127 1-151) (natural protein)
- relative abundance of pentamer [1]: 38%
- relative abundance of tetramer [1]: 63%
- stoichiometry N [1]: 4
- stoichiometry N [2]: 5

Molecule: AfMscL C-GFP (pet15b-AfMscL-TEV-GFP-6xHis) (natural protein)
- stoichiometry N [3]: 5

B1: SaMscL C-GFP (pet15b-SaMscL-S-TEV-GFP-6xHis) (natural protein, Staphylococcus aureus, UniProt P68805 1-120, looked up)
chain: MLKEFKEFALKGNVLDLAIAVVMGAAFNKIISSLVENIIMPLIGKIFGSVDFAKEWSFWGIKYGLFIQSVIDFIIIAFALFIFVKIANTLMKKEEAEEEAVVEENVVLLTEIRDLLREKK
- stoichiometry N (native MS [4]): 4
- stoichiometry N (native MS [5]): 5

B2: N-His SaMscL (pet15b-10xHis-Thrombin-SaMscL) (natural protein, Staphylococcus aureus, UniProt P68805 1-120, looked up)
chain: MLKEFKEFALKGNVLDLAIAVVMGAAFNKIISSLVENIIMPLIGKIFGSVDFAKEWSFWGIKYGLFIQSVIDFIIIAFALFIFVKIANTLMKKEEAEEEAVVEENVVLLTEIRDLLREKK
- stoichiometry N (native MS [6]): 5
- stoichiometry N (native MS [5]): 4 and 3 and 2

B3: SaMscL CΔ25 C-GFP (pet15b-SaMscL CΔ(96–120)-S-TEV-GFP-6xHis) (domain or fragment)
chain: MLKEFKEFALKGNVLDLAIAVVMGAAFNKIISSLVENIIMPLIGKIFGSVDFAKEWSFWGIKYGLFIQSVIDFIIIAFALFIFVKIANTLMKKEE
- stoichiometry N (native MS [6]): 4
- stoichiometry N (native MS [7]): 5

B4: Full-length SaMscL, cleaved of its C-terminal GFP tag (natural protein, Staphylococcus aureus, UniProt P68805 1-120, looked up)
chain: MLKEFKEFALKGNVLDLAIAVVMGAAFNKIISSLVENIIMPLIGKIFGSVDFAKEWSFWGIKYGLFIQSVIDFIIIAFALFIFVKIANTLMKKEEAEEEAVVEENVVLLTEIRDLLREKK
- stoichiometry N (native MS [8]): 5 and 4
